The values below come from publication PMC8303780, “Mutational Analysis of Redβ Single Strand Annealing Protein: Roles of the 14 Lysine Residues in DNA Binding and Recombination In Vivo”.

What all share (experiment): EMSA; strands added sequentially; Anisotropy: 50 mM Tris-HCl pH 7.5, 1 mM DTT, 0.1 mg/mL BSA, 10 nM FAM48, 23 °C (Kd per monomer); gel assay: 10 µM Redβ, 50 µM nt of each oligo, PBS, 37 °C, 1% agarose at 22 °C
Settings in all cases: protein: recombinant; tags: 6xHis removed by thrombin; residual N-terminal GSH; label: 5'-Cy3 and 5'-Cy5; complementary 50-mers; annealed by protein
In general terms: In EMSA bound probe runs differently from free probe, usually more slowly.

One data set deals with T1, Redβ K154A (bacteriophage λ, UniProt P03698 1-261, K154A).
T1 sequence: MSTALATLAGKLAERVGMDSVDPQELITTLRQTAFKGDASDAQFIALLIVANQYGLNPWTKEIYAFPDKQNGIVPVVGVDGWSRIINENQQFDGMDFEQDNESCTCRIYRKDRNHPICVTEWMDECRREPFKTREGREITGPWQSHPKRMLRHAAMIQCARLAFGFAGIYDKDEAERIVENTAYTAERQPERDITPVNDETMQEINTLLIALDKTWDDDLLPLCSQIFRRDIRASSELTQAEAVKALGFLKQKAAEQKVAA

The next data set concerns the target T2, Redβ K258A (bacteriophage λ, UniProt P03698 1-261, K258A).
T2 sequence: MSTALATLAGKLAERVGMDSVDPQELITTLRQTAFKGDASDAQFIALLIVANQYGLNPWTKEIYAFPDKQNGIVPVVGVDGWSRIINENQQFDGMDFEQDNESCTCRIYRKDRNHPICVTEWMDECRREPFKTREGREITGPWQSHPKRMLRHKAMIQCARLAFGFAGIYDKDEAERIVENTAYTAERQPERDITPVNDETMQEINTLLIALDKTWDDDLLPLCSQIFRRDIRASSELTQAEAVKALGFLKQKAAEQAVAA

A further data set concerns the target T3, Redβ K69A (bacteriophage λ, UniProt P03698 1-261, K69A).
T3 sequence: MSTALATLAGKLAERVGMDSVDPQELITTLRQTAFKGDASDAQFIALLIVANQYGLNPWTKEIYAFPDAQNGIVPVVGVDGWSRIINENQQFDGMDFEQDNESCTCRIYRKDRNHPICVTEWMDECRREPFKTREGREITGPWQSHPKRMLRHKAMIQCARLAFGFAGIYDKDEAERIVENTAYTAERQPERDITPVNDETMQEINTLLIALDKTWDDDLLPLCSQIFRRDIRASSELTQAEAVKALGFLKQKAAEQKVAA

In a further data set the target is T4, Redβ WT (bacteriophage λ, UniProt P03698 1-261).
T4 sequence: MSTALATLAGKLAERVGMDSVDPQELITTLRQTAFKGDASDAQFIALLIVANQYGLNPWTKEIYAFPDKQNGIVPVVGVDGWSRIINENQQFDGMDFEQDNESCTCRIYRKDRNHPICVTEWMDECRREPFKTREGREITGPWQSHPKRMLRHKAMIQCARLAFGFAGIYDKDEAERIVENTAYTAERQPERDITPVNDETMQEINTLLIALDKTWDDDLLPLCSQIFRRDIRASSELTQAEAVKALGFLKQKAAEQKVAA

The target of the next data set is T5, Redβ K132A (bacteriophage λ, UniProt P03698 1-261, K132A).
T5 sequence: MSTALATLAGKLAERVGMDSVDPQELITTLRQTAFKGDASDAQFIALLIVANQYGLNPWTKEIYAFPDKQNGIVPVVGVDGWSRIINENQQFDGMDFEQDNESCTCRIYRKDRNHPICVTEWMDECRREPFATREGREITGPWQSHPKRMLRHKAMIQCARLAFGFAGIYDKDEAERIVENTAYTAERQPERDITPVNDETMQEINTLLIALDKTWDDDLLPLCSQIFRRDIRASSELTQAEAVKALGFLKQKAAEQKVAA

The next data set deals with T6, Redβ K214A (bacteriophage λ, UniProt P03698 1-261, K214A).
T6 sequence: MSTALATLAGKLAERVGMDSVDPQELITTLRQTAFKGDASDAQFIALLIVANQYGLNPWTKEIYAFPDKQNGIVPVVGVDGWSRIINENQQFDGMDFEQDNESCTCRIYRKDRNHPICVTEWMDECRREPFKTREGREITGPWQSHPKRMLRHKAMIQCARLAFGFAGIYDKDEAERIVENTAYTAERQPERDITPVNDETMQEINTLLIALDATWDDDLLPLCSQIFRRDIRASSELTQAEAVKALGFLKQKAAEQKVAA

B1: annealed duplex of Cy3 and Cy5 50-mers, strands added sequentially (dsDNA)
DNA 1: GCGGATGGCTTAGAGCAGAATCGCCCTGCATAGCTCGATTTTTGCGGATG
DNA 2: CCATCCGCAAAAATCGAGCTATGCAGGGCGATTCTGCTCTAAGCCATCCG
For B1, the binding result with Redβ K154A is reported as “no binding”; in the data set with Redβ K258A, “binds”; with Redβ K69A, “binds”; with Redβ WT, “binds”; with Redβ K132A it was “no binding”; in the data set with Redβ K214A, “binds”.
